Experiments:
[1] = tested on: JHU-022 head and neck cancer xenografts; test: Quantitative viral gene expression (β-gal) in vivo, tumor and liver; parameters: species or system athymic nude (nu/nu) mice; conditions: 4 wt %
Experimental: Head and neck cancer xenografts were established by subcutaneously injecting 2×10^6 JHU-022 cells suspended in 200 μl Phosphate Buffer Saline (PBS) bilaterally in the flank of athymic nude (nu/nu) mice. Tumors were allowed to grow for two weeks to reach an average diameter of 7 mm. […] Virus-polymer solutions were prepared by thawing SELP and virus stocks and mixing them gently with physiological saline. Mice were anesthetized using 4 wt % isofluorane mixed with oxygen, and intratumorally injected with 25 μl of the polymer-virus solutions using a Hamilton syringe. Mice were euthanized on days 7, 14, and 21 and tumor and liver tissue were isolated. CPRG β-gal colorimetric assays were performed as described previously in the scientific literature. […] Recovered tissue lysates were then centrifuged for 45 minutes at 14,000 rpm and, subsequently, upper aqueous layers were used for β-gal quantification. […]
Polymer structures and compositions that formed robust hydrogels were selected for matrix-mediated delivery of reporter genes in a murine model of HNSCC. […] Animals were sacrificed at days 7, 14, and 21 for analysis of gene expression, and analyzed using a colorimetric tissue lysate assay for β-galactosidase. […]

[2] = Small angle neutron scattering (SANS) of SELP hydrogels; format: physicochemical; conditions: 12 wt %
Text: To gain further insight into the hydrogel pore structure, network properties were examined as a function of polymer sequence by small angle neutron scattering (SANS) techniques (FIG. 9). SANS allows the examination of microstructures in the range 1-100 nm through the analysis of elastic neutron scattering. SANS analysis was used to examine the correlation between the observed macroscopic properties of SELPs (12% wt), such as equilibrium swelling and mechanical modulus, with the underlying network structure. […] SELP hydrogels conformed closely with a modified gel model of the general form I(Q)=AQ^b+(BQ^2ε^2)^2+C, which uses a power-law fit for the high q scattering combined with the Debye-Bueche model at low to intermediate Q (above Q=0.02 Å^−1). The combined Debye-Bueche/power law model provided a nearly complete fit over the full q-range of collected data. […] The calculated correlation length (Table 3) depicts a trend in the observation that are in the order SELP-415K>SELP-815K>SELP-47K. […] The silk blocks of SELP-415K are separated by elastin blocks twice the length as −47K, and as these cross-linking blocks move further apart, the elastin-like nature of the SELP becomes more pronounced and the storage modulus decreases. SELP-815K presents an interesting case where the silk blocks are doubled in length over SELP-47K while also having a long elastin block as in SELP415K.

B1: SELP815K: silk-elastin-like protein polymer, longer silk units, fifteen elastin units, lysine elastin unit; monomer repeated 6 times (SEQ ID NO. 21) (protein)
chain: MDPVVLQRRDWENPGVTQLNRLAAHPPFASDPMGAGSGAGAGSGAGAGSGVGVPGVGVPGVGVPGVGVPGKGVPGVGVPGVGVPGVGVPGVGVPGVGVPGVGVPGVGVPGVGVPGVGVPGVGVPGVGVPGAGAGSGAGAGSGAGAGSGAGAGSGAGAGSGAGAGAGSGAGAGSGAGAGSGVGVPGVGVPGVGVPGVGVPGKGVPGVGVPGVGVPGVGVPGVGVPGVGVPGVGVPGVGVPGVGVPGVGVPGVGVPGVGVPGAGAGSGAGAGSGAGAGSGAGAGSGAGAGSGAGAGAGSGAGAGSGAGAGSGVGVPGVGVPGVGVPGVGVPGKGVPGVGVPGVGVPGVGVPGVGVPGVGVPGVGVPGVGVPGVGVPGVGVPGVGVPGVGVPGAGAGSGAGAGSGAGAGSGAGAGSGAGAGSGAGAGAGSGAGAGSGAGAGSGVGVPGVGVPGVGVPGVGVPGKGVPGVGVPGVGVPGVGVPGVGVPGVGVPGVGVPGVGVPGVGVPGVGVPGVGVPGVGVPGAGAGSGAGAGSGAGAGSGAGAGSGAGAGSGAGAGAGSGAGAGSGAGAGSGVGVPGVGVPGVGVPGVGVPGKGVPGVGVPGVGVPGVGVPGVGVPGVGVPGVGVPGVGVPGVGVPGVGVPGVGVPGVGVPGAGAGSGAGAGSGAGAGSGAGAGSGAGAGSGAGAGAGSGAGAGSGAGAGSGVGVPGVGVPGVGVPGVGVPGKGVPGVGVPGVGVPGVGVPGVGVPGVGVPGVGVPGVGVPGVGVPGVGVPGVGVPGVGVPGAGAGSGAGAGSGAGAGSGAGAGSGAGAGSGAGAMDPGRYQDLRSHHHHHH
modifications: monomer repeated 6 times; Hybrid of Homo sapein and Bombyx mori
[1]; Ad.CMV.LacZ 5×10^8 PFU intratumoral, week one
  tumor transfection (β-gal) compared to free virus: more than 50 fold
[1]; Ad.CMV.LacZ, week two
  difference in tumor vs. liver transfection: 55 fold
[2]
  Debye-Bueche mid-Q slope: ~−3
  Power-law low Q slope: 3.26

Reference: US10253089B2, “Matrix metalloproteinase cleavable protein polymers for cancer gene therapy” (The University of Utah Research Foundation, priority 2012, dated 2019)
